Measured values from publication PMC7949032, “The KH domain facilitates the substrate specificity and unwinding processivity of DDX43 helicase”.

Key:
[1] = target: DDX43 KH-domain protein KH-126 (human) (UniProt Q9NXZ2); test: SEC; Sephacryl S-100 high-resolution column calibrated with molecular mass standards; buffer A (25 mM Tris pH 8.0, 0.15 M NaCl, 100 uM Tween 20, 10% glycerol), 0.5 ml/min
DDX43 KH-126 = target: T1, DDX43 KH-126 (UniProt Q9NXZ2); test: filter binding; conditions: EMSA: 40 mM Tris pH 8.0, 0.5 mM MgCl2, 15 mM NaCl, 0.01% NP-40, 0.1 mM DTT, 1 mg/ml BSA, no ATP, ice 30 min (Fig 2A legend: RT); filter binding: 25 mM Tris pH …
T1 sequence: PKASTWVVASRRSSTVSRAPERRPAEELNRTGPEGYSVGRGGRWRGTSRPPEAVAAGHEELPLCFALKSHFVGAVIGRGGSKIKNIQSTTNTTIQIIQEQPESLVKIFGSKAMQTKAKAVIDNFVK

DDX43 KH-89 [2] = target: T2, DDX43 KH-89 (UniProt Q9NXZ2 54-142); test: NMR HSQC titration; EMSA: 40 mM Tris pH 8.0, 0.5 mM MgCl2, 15 mM NaCl, 0.01% NP-40, 0.1 mM DTT, 1 mg/ml BSA, no ATP, ice 30 min (Fig 2A legend: RT); filter binding: 25 mM Tris pH 7.5, 25 mM KOAc, 1 mM Mg(OAc)2, 1 mM DTT, 0.1 mg/ml BSA, 37 C; NMR: 25 mM Hepes pH 7.4, 250 mM NaCl, 5% D2O, temperature not stated; conditions: protein: recombinant; His removed by thrombin for NMR; 15N
T2 sequence: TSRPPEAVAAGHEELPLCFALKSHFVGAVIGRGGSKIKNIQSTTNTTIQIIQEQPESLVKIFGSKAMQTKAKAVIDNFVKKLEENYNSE

DDX43 KH-89 [3] = target: T2, DDX43 KH-89; test: NMR HSQC titration; negligible shift changes; EMSA: 40 mM Tris pH 8.0, 0.5 mM MgCl2, 15 mM NaCl, 0.01% NP-40, 0.1 mM DTT, 1 mg/ml BSA, no ATP, ice 30 min (Fig 2A legend: RT); filter binding: 25 mM Tris pH 7.5, 25 mM KOAc, 1 mM Mg(OAc)2, 1 mM DTT, 0.1 mg/ml BSA, 37 C; NMR: 25 mM Hepes pH 7.4, 250 mM NaCl, 5% D2O, temperature not stated; conditions: protein: recombinant; His removed by thrombin for NMR; 15N
DDX43 KH-89 [4] = target: T2, DDX43 KH-89; test: EMSA; EMSA: 40 mM Tris pH 8.0, 0.5 mM MgCl2, 15 mM NaCl, 0.01% NP-40, 0.1 mM DTT, 1 mg/ml BSA, no ATP, ice 30 min (Fig 2A legend: RT); filter binding: 25 mM Tris pH 7.5, 25 mM KOAc, 1 mM Mg(OAc)2, 1 mM DTT, 0.1 mg/ml BSA, 37 C; NMR: 25 mM Hepes pH 7.4, 250 mM NaCl, 5% D2O, temperature not stated; conditions: protein: recombinant; His removed by thrombin for NMR; 15N; label: 5'-32P
DDX43 KH-89 A81G = target: T3, DDX43 KH-89 A81G (UniProt Q9NXZ2 54-142, A81G); test: NMR HSQC titration; fewer residues shifted, larger shifts than WT; EMSA: 40 mM Tris pH 8.0, 0.5 mM MgCl2, 15 mM NaCl, 0.01% NP-40, 0.1 mM DTT, 1 mg/ml BSA, no ATP, ice 30 min (Fig 2A legend: RT); filter binding: 25 mM Tris pH 7.5, 25 mM KOAc, 1 mM Mg(OAc)2, 1 mM DTT, 0.1 mg/ml BSA, 37 C; NMR: 25 mM Hepes pH 7.4, 250 mM NaCl, 5% D2O, temperature not stated; conditions: protein: recombinant; tags: His cleaved by thrombin
T3 sequence: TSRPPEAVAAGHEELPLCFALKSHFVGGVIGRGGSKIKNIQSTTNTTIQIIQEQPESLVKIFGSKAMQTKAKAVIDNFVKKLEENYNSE

DDX43 full-length WT [5] = target: T4, DDX43 full-length WT (UniProt Q9NXZ2 1-648); test: EMSA; no ATP; preferred RNA; EMSA: 40 mM Tris pH 8.0, 0.5 mM MgCl2, 15 mM NaCl, 0.01% NP-40, 0.1 mM DTT, 1 mg/ml BSA, no ATP, ice 30 min (Fig 2A legend: RT); filter binding: 25 mM Tris pH 7.5, 25 mM KOAc, 1 mM Mg(OAc)2, 1 mM DTT, 0.1 mg/ml BSA, 37 C; NMR: 25 mM Hepes pH 7.4, 250 mM NaCl, 5% D2O, temperature not stated; conditions: protein: recombinant; (pET28a); label: 5'-32P; 13 bp, 5' overhang 15 nt on strand 1
DDX43 full-length WT [6] = target: T4, DDX43 full-length WT; test: EMSA; no ATP; preferred DNA; EMSA: 40 mM Tris pH 8.0, 0.5 mM MgCl2, 15 mM NaCl, 0.01% NP-40, 0.1 mM DTT, 1 mg/ml BSA, no ATP, ice 30 min (Fig 2A legend: RT); filter binding: 25 mM Tris pH 7.5, 25 mM KOAc, 1 mM Mg(OAc)2, 1 mM DTT, 0.1 mg/ml BSA, 37 C; NMR: 25 mM Hepes pH 7.4, 250 mM NaCl, 5% D2O, temperature not stated; conditions: protein: recombinant; (pET28a); label: 5'-32P; 20 bp, 3' overhang 25 nt on strand 1

T4 sequence (Q9NXZ2 whole entry): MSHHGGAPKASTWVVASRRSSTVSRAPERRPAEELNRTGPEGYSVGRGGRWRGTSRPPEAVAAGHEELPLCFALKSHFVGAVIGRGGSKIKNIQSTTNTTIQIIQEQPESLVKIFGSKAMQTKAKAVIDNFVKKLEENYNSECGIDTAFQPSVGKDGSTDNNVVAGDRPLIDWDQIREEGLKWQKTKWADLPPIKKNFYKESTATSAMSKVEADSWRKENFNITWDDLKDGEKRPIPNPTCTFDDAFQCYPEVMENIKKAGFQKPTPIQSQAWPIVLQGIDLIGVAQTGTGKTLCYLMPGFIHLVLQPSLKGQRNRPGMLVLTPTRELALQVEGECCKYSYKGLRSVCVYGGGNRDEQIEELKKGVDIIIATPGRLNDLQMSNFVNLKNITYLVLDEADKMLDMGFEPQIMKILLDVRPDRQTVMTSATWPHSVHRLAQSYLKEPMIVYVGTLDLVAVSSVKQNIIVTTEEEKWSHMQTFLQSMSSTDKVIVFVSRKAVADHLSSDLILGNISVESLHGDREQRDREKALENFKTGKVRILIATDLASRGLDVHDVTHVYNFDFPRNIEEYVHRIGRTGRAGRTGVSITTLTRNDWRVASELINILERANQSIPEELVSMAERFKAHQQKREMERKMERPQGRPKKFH

Work on “DDX43 KH-domain protein KH-126 (from UniProt Q9NXZ2 67-128) (domain or fragment)” yielded a stoichiometry N [1] of 2.

“TTTTTTTTTTTTTTTGGTGATGGTGTATTGAGTGGGATGCATGCA / TGCATGCATCCCACTCAATACACCATCACCTTTTTTTTTTTTTTT [fork dsDNA 30/15]” was tested, and the Kd (DDX43 KH-126) was 1.29 µM.

UUUUUUUUUUUUUUUUUUUUUUUUUUUUUU [rU30] was tested, and the Kd (DDX43 KH-126) was 1.48 µM.

“GAGCUACCAGCUACCCCGUAUGUCAGAGAG [ssRNA 30-mer]” gave a Kd (DDX43 KH-126) of 3.01 µM.

For “UUUUUUUUUUUUUUUGGUGAUGGUGUAUUGAGUGGGAUGCAUGCA / UGCAUGCAUCCCACUCAAUACACCAUCACCUUUUUUUUUUUUUUU [forked dsRNA 30/15]”, the Kd (DDX43 KH-126) was 2.5 µM.

In the case of “GAGCTACCAGCTACCCCGTATGTCAGAGAG [ssDNA 30-mer]”, the Kd (DDX43 KH-126) is reported as 1.41 µM.

For TTTTTTTTTTTTTTTTTTTTTTTTTTTTTT [dT30], the Kd (DDX43 KH-126) was 2.45 µM.

In the case of TTTTTTTTTT (ssDNA) [dT10], the Kd (DDX43 KH-89 [2]) is reported as 174 ± 90 µM.

With TGTGT (ssDNA) the Kd (DDX43 KH-89 [2]) was 78 µM.

CGCGC (ssDNA) was tested, and the Kd (DDX43 KH-89 [2]) was 266 µM.

In the case of GTTGT (ssDNA), the Kd (DDX43 KH-89 [2]) is reported as 44 µM.

CTCTC (ssDNA): binds (DDX43 KH-89 [2]).

AAAAA (ssDNA) [dA5]: no binding (DDX43 KH-89 [3]).

GGGGG (ssDNA) [dG5]: no binding (DDX43 KH-89 [3]).

GAGCTACCAGCTACCCCGTATGTCAGAGAG (ssDNA) [ssDNA 30-mer]: binds (DDX43 KH-89 [4]).

GAGCUACCAGCUACCCCGUAUGUCAGAGAG (ssRNA) [ssRNA 30-mer]: binds (DDX43 KH-89 [4]).

In the case of TTTTT (ssDNA) [dT5], the Kd (DDX43 KH-89 [2]) is reported as 1500 ± 290 µM and the binding result (DDX43 KH-89 A81G) is reported as “binds”.

B1: 13-bp dsRNA 5' UUGU-repeat tail (dsRNA)
RNA 1: UGUUGUUGUUGUUGUACCGUAAAGACGC
RNA 2: GCGUCUUUACGGU
B1: binds (DDX43 full-length WT [5]).

B2: 20-bp dsDNA 3' TTGT-repeat tail (dsDNA)
DNA 1: CCACTCAATACACCATCACCTTGTTGTTGTTGTTGTTGTTGTTGT
DNA 2: GGTGATGGTGTATTGAGTGG
B2: binds (DDX43 full-length WT [6]).

Molecule CCCCC (ssDNA) [dC5] has a Kd (DDX43 KH-89 [2]) of 2100 ± 400 µM.

UUUUU (ssRNA) [rU5] was tested, and the Kd (DDX43 KH-89 [2]) was 1800 ± 200 µM.
